Test results taken from patent publication US8129557B2, “Phosphonic acid diester derivative and method for producing thereof” (priority 2005, dated 2012).

Substrate: Cc1cc(=O)oc2cc(NC(=O)CC[C@H](N)C(=O)O)ccc12
Assay: Hydrolytic assay of E. coli GGT (Michaelis constant of substrate)
Type: biochemical, Escherichia coli K-12
Conditions: other: E. coli GGT, pH 5.5, 25° C.
Method: In the experiment, at first, Michaelis constants (Km) for 7-(γ-L-glutamylamino)-4-methylcoumarin as substrate were measured by a fluorescence method [Smith, G. D.; Ding, J. L.; Peters, T. J. Anal. Biochem. 100, 136-139 (1979)] for the hydrolytic activities of E-coli GGT and human GGT.
In the hydrolytic assay of E. coli GGT, 10 μL of a […] enzyme solution was added to a 100 mM succinic acid-sodium hydroxide buffer solution (pH 5.5) in a total volume of 1 mL containing 100 μL of 2 μM substrate aqueous solution. The product, 7-amino-4-methylcoumarin (AMC), released along with the enzyme reaction was traced continuously at 25° C. using a fluorospectrophotometer F-2000 manufactured by Hitachi Ltd. (excitation wavelength: 350 nm, emission wavelength: 440 nm). The AMC concentration was separately measured by forming a calibration curve showing the relation of the fluorescence intensity (F) and the concentration (C) using standard solutions and was calculated from the relational expression (1) of the fluorescence intensity alteration (ΔF) and concentration alteration (ΔC).
[Expression 1] ΔF/ΔC=0.11 nM^−1 (1)
The fluorescence intensity was proportional to the AMC concentration up to 2.0 μM. As a result, Km value for 7-(γ-L-glutamylamino)-4-methylcoumarin was 0.2 μM under this condition.

B1: E. coli GGT (Escherichia coli K-12) (protein)
chain 1: APPAPPVSYGVEEDVFHPVRAKQGMVASVDATATQVGVDILKEGGNAVDAAVAVGYALAVTHPQAGNLGGGGFMLIRSKNGNTTAIDFREMAPAKATRDMFLDDQGNPDSKKSLTSHLASGTPGTVAGFSLALDKYGTMPLNKVVQPAFKLARDGFIVNDALADDLKTYGSEVLPNHENSKAIFWKEGEPLKKGDTLVQANLAKSLEMIAENGPDEFYKGTIAEQIAQEMQKNGGLITKEDLAAYKAVERTPISGDYRGYQVYSMPPPSSGGIHIVQILNILENFDMKKYGFGSADAMQIMAEAEKYAYADRSEYLGDPDFVKVPWQALTNKAYAKSIADQIDINKAKPSSEIRPGKLAPYESNQ
chain 2: TTHYSVVDKDGNAVAVTYTLNTTFGTGIVAGESGILLNNQMDDFSAKPGVPNVYGLVGGDANAVGPNKRPLSSMSPTIVVKDGKTWLVTGSPGGSRIITTVLQMVVNSIDYGLNVAEATNAPRFHHQWLPDELRVEKGFSPDTLKLLEAKGQKVALKEAMGSTQSIMVGPDGELYGASDPRSVDDLTAGY
notes: was used as a purified enzyme of E-coli GGT; made in house
- Km: 0.2 µM
